Source: patent US8124375B2, “Geraniol synthase, methods of production and uses thereof” (The Regents Of The University Of Michigan, priority 2003, dated 2012)

What was measured:
[1] = GES enzyme assay (conversion of [1-3H]-GDP, hexane-extractable product counted by scintillation); type: biochemical; conditions: GES purification from gland of basil “Sweet Dani” cultivar
Method: GES activity was assayed by incubating 5 μl of the enzyme sample in a final volume of 50 μl buffer containing 50 mM Hepes-KOH, pH 8.0, 1 mM DTE, 0.5 mM MnCI2, 20 mM MgCl2, 10% glycerol and 54 μM [1-3H]-GDP (specific activity 20 Ci/mol, American Radiolabeled Chemicals, St. Louis, Mo.). After incubation for 30 mm at […], 160 μl hexane was added to the tube, and vortexed briefly and centrifuged to separated the phases. The hexane layer was directly placed into a scintillation vial containing 2 ml of nonaqueous scintillation fluid (Econo-Safe, Research Products International, Mount Prospect Ill.). This extraction procedure was repeated twice and the total hexane phase was counted by Liquid Scintillation counter (LS-6500 model, Beckman Coulter, Fullerton, Calif.). Boiled enzyme extracts were used as controls.

[2] = Identification of enzymatic products of GES with GDP by SPME GC-MS; type: biochemical; conditions: SPME gas chromatogram of the reaction solution, peak identified by MS
Method: GES enzyme assays were also performed by adding 100 μl of enzyme solution with 900 μl assay solution containing 54 μM non-radioactive GDP (Echelon Research Laboratories, Salt Lake City, Utah) and the same buffer described above. The reactions were carried out in an 8 mL DuPont autosampler vial with a white solid-top polypropylene cap (Alltech, Deerfield, Ill.). After letting the reaction proceed for 2-4 hr at 32° C., the liberated compounds were collected with a solid-phase microextraction (SPME) device PDMS-100 with a polydimethylsiloxane fiber (Supelco, Bekkefonte, Pa.) by inserting the fiber into the tube and leaving it in for 20 mim at 42° C. After this incubation step, the solid-phase microextraction fiber was directly injected into the GC-MS.

Total activity ([1]; activity of the fraction after the named purification step): 337.2 ptat
B1: Superose12: geraniol synthase purified from basil glands after Superose 12 size exclusion chromatography (protein, UniProt Q6USK1 64-567, looked up)
Geraniol synthase, …: QHMEESSSKRREYLLEETTRKLQRNDTESVEKLKLIDNIQQLGIGYYFEDAINAVLRSPFSTGEEDLFTAALRFRLLRHNGIEISPEIFLKFKDERGKFDESDTLGLLSLYEASNLGVAGEEILEEAMEFAEARLRRSLSEPAAPLHGEVAQALDVPRHLRMARLEARRFIEQYGKQSDHDGDLLELAILDYNQVQAQHQSELTEIIRWWKELGLVDKLSFGRDRPLECFLWTVGLLPEPKYSSVRIELAKAISILLVIDDIFDTYGEMDDLILFTDAIRRWDLEAMEGLPEYMKICYMALYNTTNEVCYKVLRDTGRIVLLNLKSTWIDMIEGFMEEAKWFNGGSAPKLEEYIENGVSTAGAYMAFAHIFFLIGEGVTHQNSQLFTQKPYPKVFSAAGRILRLWDDLGTAKEEQERGDLASCVQLFMKEKSLTEEEARSRILEEIKGLWRDLNGELVYNKNLPLSIIKVALNMARASQVVYKHDQDTYFSSVDNYVDALFFTQ
Specific activity ([1]; activity per mg protein after the named purification step): 6244.2 pkat/mg
Products of the reaction catalyzed by purified GES with GDP [2]: Only a single peak was observed, identified as geraniol
